The record followed here is a protein production outcome set (Wang et al. 2014).
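Further: failed if final PepcDB status was selected cloned or expressed and not failed if soluble or beyond.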

The data set in a line: label from the status in PepcDB records.
Consider “MRRAEIPMNPLINHPAILFVVMLVVMSSATALGALVLRRIRPLPAEVKDDFGIVQGATLTLLALLIGFTLSMAVGRYDQRKNLEEEEANAIGTEYLRADLIEGPEAEQVKALLVRYLDQRILYYRTRDSAQLQEIEAATSQIEDEMWKLMRSAARAKPTPITGLVVSGMNDVINSQGYAEAAWINRIPVSAWGLMIVIAFFSSMMQGYGARSENAKIILMLVLPFTVSLSLALISDIDSPRGGLIRVLPQNLLSLQASLKR”, for which the protein production result is on record as “failed”.

As to “MKKILASMAVASVAGGTVIGTAQAQTSIAPEDTQSKQASDVVTHENRVTVNVDALRVRTGPSTSNTILGLVSKEQSVPVVDETEDWYKIKYNNTEAYVNKEYATPNHIKVSTTTLRVRTGPSTSNSILGLVGEGEILQVTGEADGWYKIKYNNRDAYVSKDYVSINKSLVKSKKQKVQASRSYTVNVSSLRVRTGPSMSHPVVSVMNKGQVVQVVGEVQDWYRVKLNEGFAYINKDYVSRGTNNTANLPQSIQTESVQQNGTYIVDAAVLRVRTGPANYHPVIGGVLKGQSLQVVDIENGWYKIKYNNRTGYVSGEFVKFLKGSSTQEQTQTKEKLEQAQQPNHEQEKQEVAQQSTREQEKQEVAQQPTREQEKQEVVQQPTREQEKQEPAQNYYVKSSSLNVRSGAGMNYEVIGVVEPNQKIQVVGQQAGWYKINYNGKTGFVGMNYLSKTKVATVEEQPPSEVGTTNENTASGFIKPAAGSYTSGFEKRGGQMHYGLDIAASGTVSVSAAADGVVTRSYYSESYGNVVFISHNMNGQTYTTVYAHLNSRSVSAGQSVKQGQQIGFMGNTGQSEGQHLHFEVHKGEWNAQKSNAVNPKLYIK”, the protein production result was “failed”.

Regarding “DKIHMLKQQNIIGIGTHNGITTIHTTNHKYETTEPLNRYEKRLNPTYFIRIHRSYIINTKHIKEVQQWFNYTYMVILTNGVKMQVGRSFMKDFKASIGLL”, the protein production result is “failed”.

As to “MKTKQTDELLAKDEQYVWHGMRPFSPNSTMVGAKAEGCWVEDIQGKRYLDGMSGLWCVNSGYGRKELAEAAYKQLQTLSYFPMSQSHEPAIKLAEKLNEWLGGEYVIFFSNSGSEANETAFKIARQYYAQKGEPHRYKFMSRYRGYHGNTMATMAATGQAQRRYQYEPFASGFLHVTPPDCYRMPGIERENIYDVECVKEVDRVMTWELSETIAAFIMEPIITGGGILMPPQDYMKAVHETCQKHGALLISDEVICGFGRTGKAFGFMNYDVKPDIITMAKGITSAYLPLSATAVKREIYEAFKGKGEYEFFRHINTFGGNPAACALALKNLEIIENENLIERSAQMGSLLLEQLKEEIGEHPLVGDIRGKGLLVGIELVNDKETKEPIDNDKIASVVNACKEKGLIIGRNGMTTAGYNNILTLAPPLVISSEEIAFVIGTLKTAMERI”, the protein production entry is listed as “failed”.

In the case of “MIINDPVKITGIVDILIIIIFTSLGFRGFLRGFIKEISGFAEVFVLILLLYKKTEEFRRFVEPIIELSYIQALLVFFLLIHIGFLILQSLIESIISQLKLLFFNRILGLVLGLLEAFGIIAIVVYIIHSQQIFKPEYFLKESKLLDYLNPGINYLFKISKTK”, the protein production result is “failed”.

In the case of “MKILWLIILVNLFLSCGNESKEKSNLGLRLRELEISGGGSESKIEVYKEFIEKEDKNILKIVNSIDKKARFFNLIGLEFFKLGQYGPAIEYFAKNLEINPNNYLSHFYIGVASYNLAKNLRVKDEVEKYIILAENSFLKSLSIRDDFKDSLFAISNMYVYDLDKQLEAKNYLNKLGDMGEDYFEFLMLRGANYYSLGDLGNAILFYDKASKKASTEEQKEGVSRIMSNLK”, the protein production entry is “failed”.

For “MLLRSPSYAGKAAQAQEGDAYGVYQLATLLIGMDAEDETSCLLAADALYRLGRLDDAHKSLLVALSQRPQAAPVLVRLALLQLRRGFCYDANQLVKKVAQSGDTACLQHMLDIFHHEDLQLLQDHCHTRALSILRARPGGSDSEAHTREAIAYLSLAIFAAGSGGSESLLVRARCYGLLGQKKTAMFDFNAILREEPGNVKALCGRALVHLALDQLQEAVDDMVSALKLDPGTVTPEILSLKTEVQLPLTQGLYTRCRVLLNQCLHTGVPLREEDTQGLLATGKALIRINATQPSWRLLLTDILTGLGKYQEAGTHLQEALHLTPSSEAAQARQGLLQLKKGDVSAAAHGLQCLAERDTQDLGFLLRLLDSPERQSLVQTAAKEASNILDLGNPGQALSYCSLAILAGGNNPYHLRLRVACLTQLREYDRALRDLDRVLQHPAEDSDLPRRSEDFCTRGRLLLSLGDKDGAAGAFTQALALAPAQAQNSLLEQPGQAMTASVFLIHGQRCLEEQHFEEAWTAVQNGLLVDPSHSGLKKLKLRTRKVATSGCRLH”, the protein production entry is “failed”.

Take “MTSTVEFINRWQRIALLSQSLLELAQRGEWDLLLQQEVSYLQRIETVMEKQTPPGITRSIQDMVAGYIKQTLDNEQLLKGLLQQRLDELSSLIGQSTRQKSLNNAYGRLSGMLLVPDASGAS”: the protein production entry is “failed”.

For the sequence “MVGEVVLVNAYKKFFREYFNFKGKTSRLDFWYVILSLLILSIIPTAILSYLIFGSLMSISGGGNVQEIMEITFLNIPIFIIGIIYLFLFVPVITMTVRRWRDVGLRASGIILIFCLLVLIVILGFIIHLKQNIIIDFLIVISSSMFLITLMPSQICCTNSKNRISQFFFCSKGER”, the protein production entry is on record as “failed”.

As for “MILLGVSERSDHSLHITGVDDAHKLVQDFWNTVHDSSTISSVVLSENDVVVRHTGQGDIVSIDIPRASRERIPVYVGPNPLKGSYRRNGDGDYLCDSETVHAMLRDSDLRPLDRKIVGG”, the protein production result is listed as “failed”.

As for “MKYIVAVNASPRSGWNTSQLVEAAAKGAKEAGATVDIIDLYKLEPFQGCISCFGCKLPRTFGRCVSKDGLSEVLDKIRKADGLILGSPNYLGNLTAGFRALYERLIFQSLTYNKERPNCNEHMIPVLLITTSNCDESIYDKIGYTSMLEGYKQMLERFVGPLEHHHHHH”, the protein production entry is reported as “failed”.

Take “MTKNTRFSPEVRQRAVRMVLESQGEYDSQWATICSIAPKIGCTPETLRVWVRQHERDTGGGDGGLTTAERQRLKEPERENRELRRSNDILRQASAYFAKAEFDRLWKK”: the protein production entry is recorded as “failed”.

Turning to “MVHMGYKITDKRDLSPIDFFVEVEAPHIAKAWKPGQFVIFILHERGERVPMSVYKAENGRIGMFIRKLGKTSLQLYYEFNVGDEFYSMVGPLGKPIKVKYYGNVVFASDAVCGQAENYATLKAMKEVGNYTISIQTFENAENVYPEEFLAKPVADEHYLTTEDGSVGIKGHYLDIVKELIEKDKVDIIFAGGKLGSLAKLAELTRPYGIPTYATVRQIMVDGTGMCGSCRILYDGEVKFACRDGPVFDAHKVDWEDVLRRANRFLEQERLAKERYLEYLRKKGVI”, the protein production result is on record as “failed”.

As to “MSNPLGELVKALEKLSFKPSDVRIYSLLLERGGMRVSEIARELDLSARFVRDRLKVLLKRGFVRREIVEKGWVGYIYSAEKPEKVLKEFKSSILGEIERIEKMFTD”, the protein production result is reported as “not failed”.

Consider “MRRELLLEKIETYKAIMPWYVLDYYQSKLAVPYSFTTLYEYLKEYKRFFDWLMDADLTQAPKIADIDLSTLEHLTKKDLEAFVLYLRERPSLNTYSTKEGLSQTTINRTLSALSSLYKYLTEEVENDQGEPYFYRNVMKKVSTKKKKETLASRAENIKQKLFLGDETLAFLDYVDKEYEQKLSNRAKSSFRKNKE”, for which the protein production result is listed as “failed”.

With “VDIVVIGAGFTGLSTAYHIRKTDSSASVVVLEGECVAFGASGRTSGWVVPIPVLDPATARTLYGKERLTELQNFAWDGLDYVRDLISRENMDSDFEVPGVTFTTLKGHEKRLETFIKYWKDQPRSSDSIIMDKATVSNALNSDAFSGGCRMLHSGQVNPVKHSRELKRIAQEAGAQIFEQTPVLDIEDHGTYFILKTPEGQVRTKHIVLGTNGFTHLLPATLGLRRAQLPMFVYQLMTEPLSEADWKALGWKHRAQFYDKTTYCPPTCRTTVDGRLQFNLCDVYLGTGRSMDEAQRMQFYDAAERMYKKMFPAFKNLRVAQRWSGACSISFDVRPQVGTLHDGRISYGYGYSGAGVMMSQNFGRILADLALQRKTELTE”, the protein production result was “failed”.

Consider “MSREDELLEKLDECENATAFLQVSNKIINLKLKALLPSVFVQDDLVKEYAVDPLLREDGPLVTTDVVSKLMFAMGKISLQTYADIGLYDQVLEYVVTQPEKIAFTDDVIYDFIKNQAVLSSQQDCFYLESINQLKFSSFESFSQMRYESLIKTVLKLSCEMLIERIEEEINQ”, for which the protein production result was “not failed”.

With “MATRAPASTLRQIPSGIWMLGCVSLLMDISSEIIHSLLPVFMVTTLGASALAVGLIEGAAEATALIVKVFSGVLSDYLGKRKALAVLGYGLGALSKPLFAVAPGVGTILAARLSDRIGKGIRGAPRDALVADIAPAHLRGAAFGLRQALDTVGAFLGPLIAIGLMMLWANDFRAIFWVAVVPGVLSVALLAFGVKEPQTHTGDKRVNPIRRANLARLGPAYWGVVAVGTAFALARFSEAFLILRVQQEGLPLFMAPLVLVTMNAVFAVTAYPFGKLADNCSHDKLLVAGLAVLIVADTVLAVGSHWSIALVGVALWGLHMGMTQGLLATMVADAAPADLRGTAFGVFNLASGLALLAASVMAGWLWDRHGAAATFHAGAGFCVLTIALLIHRLRNRPASGAATR”, the protein production result was “failed”.

In the case of “MAAAALREQLNALLSSMFASGLVDEQFQQLQMLQEDGGTPGFVAEVVTLFCDDADRIISELAALLDQPIVDFDKVDAYVHQLKGSSASVGAQKVKFTCMQFRQLCQDKNRDGCIMALAVVRNEFYDLRNKFQTMLQLEQQIQAQQ”, the protein production entry is “not failed”.

On to “WMLGIPIGGLLAFILGGAALSVFHFGMDYTNRNEFCYSCHIGMDTIVEEYQASPHFKNAQGVIAATCSDCHVPREFFAKIALKIGATADIYHKLKGDITLDNFEAEHRPRLAAEVTQQFIENKSKQCRYCHSVDKMDFEAQGRTVARRHQMMESRDQSCIDCHAGIAHHLPISLDSPET”, for which the protein production result was “failed”.

Regarding “MDTCGVGYVALGEAGPVGNMTVVDSPGQEVLNQLDVKTSSEMTSAEASVEMSLPTPLPGFEDSPDQRRLPPEQESLSRLEQPDLSSEMSKVSKPRASKPGRKRGGRTRKGPKRPQQPNPPSAPLVPGLLDQSNPLSTPMPKKRGRKSKAELLLLKLSKDLDRPESQSPKRPPEDFETPSGERPRRRAAQVALLYLQELAEELSTALPAPVSCPEGPKVSSPTKPKKIRQPAACPGGEEVDGAPRDEDFFLQVEAEDVEESEGPSESSSEPEPVVPRSTPRGSTSGKQKPHCRGMAPNGLPNHIMAPVWKCLHLTKDFREQKHSYWEFAEWIPLAWKWHLLSELEAAPYLPQEEKSPLFSVQREGLPEDGTLYRINRFSSITAHPERWDVSFFTGGPLWALDWCPVPEGAGASQYVALFSSPDMNETHPLSQLHSGPGLLQLWGLGTLQQESCPGNRAHFVYGIACDNGCIWDLKFCPSGAWELPGTPRKAPLLPRLGLLALACSDGKVLLFSLPHPEALLAQQPPDAVKPAIYKVQCVATLQVGSMQATDPSECGQCLSLAWMPTRPHQHLAAGYYNGMVVFWNLPTNSPLQRIRLSDGSLKLYPFQCFLAHDQAVRTLQWCKANSHFLVSAGSDRKIKFWDLRRPYEPINSIKRFLSTELAWLLPYNGVTVAQDNCYASYGLCGIHYIDAGYLGFKAYFTAPRKGTVWSLSGSDWLGTIAAGDISGELIAAILPDMALNPINVKRPVERRFPIYKADLIPYQDSPEGPDHSSASSGVPNPPKARTYTETVNHHYLLFQDTDLGSFHDLLRREPMLRMQEGEGHSQLCLDRLQLEAIHKVRFSPNLDSYGWLVSGGQSGLVRIHFVRGLASPLGHRMQLESRAHFNAMFQPSSPTRRPGFSPTSHRLLPTP”, the protein production entry is “failed”.
